Reference: the nanobody polyreactivity screen of Harvey et al. (2022)

Test: yeast display, Sf9 membrane polyspecificity reagent, FACS + sequencing; frameworks hold sequencing errors
In short: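 Nanobodies from a synthetic yeast display library (Saccharomyces cerevisiae BJ5465), induced 36–48 hours with galactose, were stained 1 hour at 4 °C with 10% biotinylated, detergent-solubilized Sf9 membrane reagent, enriched on streptavidin microbeads, then FACS-sorted. Anti-HA (expression) and streptavidin (reagent binding) fluorescence set low and high (top ~1%) gates. Polyreactivity labels come from the gate of origin. Genes were colony-PCR amplified, MiSeq 2 × 250 sequenced and filtered by CDR length.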

| Sequence | polyreactivity (PSR sort gate) |
| --- | --- |
| QVQLVESGGGLVQAGGSLRLSCAASGTTFSYNAIVWYRQAPGKERELVAAISGSGGTTYYADSVKGRFTISRDNAKNTVYLEMNSLKPEDTAVYYCDARPFRSWRYDYWGQGTQVTVSS | low polyreactivity |
| QVQLVESGGGLVQAGGSLRLSCAASGTTFTFNAMGWSRQAPGKERELVAAMSRSGGRTYYADSVKGRFTISRDNAKNTVYLQMNSLNPEDTAVYYCANDFVEQGRYNVGYWGQGTQVTGSS | high polyreactivity |
| QVQLVESGGGLVQAGGSLRLSCAASGTTFVHYAMGWYRQAPGKERELVAAISSSGDSTYYADSVKGRFTISRDKAKNTVYLQMNSLKPEDTAVYYCAVRSRTPRAYYYWGQGTQVTVSS | low polyreactivity |
| QVQLVESGGGLVQAGGSLRLSCAASGTTFVWYAMGWYRQAPGKERELVAAISLSGGSTYYADSVKGRFTISRDNAKKTVYLQMNSLKPEDTAVYYCAAETYAYLFHTYDYWGQGSQVTVSS | low polyreactivity |
| QVQLVESGGGLVQAGGSLRLSCAASGTTFYNYAMGWYRQAPGKERELVAAITSSGGSTYYADSVKGRFTISRDNAKNTVYLQMNSLKPEDTAVYYCNAVDGYGLVHSISTYEMDYWGQGTQVTVSS | low polyreactivity |
| QVQLVESGGGLVQAGGSLRLSCAASGTTYSINAMGWYRQATGKERELVAAISSGGSTYYADSVKGRFTISRDNAKYTVYLQMNSLIPEDTAVYYCAVDPSWTYWSTYRYDYWGQGTQVTVSS | low polyreactivity |
| QVQLVESGGGLVQAGGSLRLSCAASGVIFYVYAMGWYRQAPGKERELVAAISADGGITYYADSVKGRFTISRDNAKNTVYLQMNSLKPEDTAVYYCAADYYGSVQGGIQYGYYYWGQGTQVTVSS | low polyreactivity |
| QVQLVESGGGLVQAGGSLRLSCAASGVYAMGWYRQAPGKERELVAAISRRGGSTYYADSVKGRFTISRDNAKNTVYLQMNSLKPEDTAVYYCAAKRAGAEYDYWGQGTQVTVSS | high polyreactivity |
| QVQLVESGGGLVQAGGSLRLSCAASGYIFAGNAMGWYRQAPGKERELVAVITRGGRTYYADSVKGRFTISRDNAKNTVYLQMNSLKPEDTAVYYCAKLVSLAGRIYGYWGQGTQVTVSS | high polyreactivity |
| QVQLVESGGGLVQAGGSLRLSCAASGYIFAVYAMGWYIQAPGKEREFVAVITWRGGSTYYADSVKGRFTISRDNAKNTVYLQMNSLKPEDTAVYYCADDVYAQYDYWGQGTQVTVSS | high polyreactivity |
| QVQLVESGGGLVQAGGSLRLSCAASGYIFAWNAMGWYRQAPGKERQLVAAIRSSSGRTYYADSVKGRFTISRDNAKNTVYLLMNSLKPEDTAVYYCAASYAGGAVYYKYYSWGQGTQVTVSS | high polyreactivity |
| QVQLVESGGGLVQAGGSLRLSCAASGYIFDGNAMGWYRQAPGKERELVASISSGTSTYYADSVKGRFTISRDNAKNTVYLQMNSLKPEDTAVYYCAGDYKWSGFGYWGQGTQVTVSS | low polyreactivity |
| QVQLVESGGGLVQAGGSLRLSCAASGYIFDRYAMGWYRQAPGKERELVAAISGRGGSTYYADSVKGRFTISRDNAKNTVYLQKNSLKPEDTAFYYCARDVYVRNGQRARYDSWGQGTQVTVSS | high polyreactivity |
| QVQLVESGGGLVQAGGSLRLSCAASGYIFDVYAMGWYRQAPGKERELVAAISSSGGRTYYADSVKGRFTISRDTAKNTVYLQMNSLKPEDTAVYYCAAKTHSRTKVYTADYWGQGTQVTVSS | high polyreactivity |
| QVQLVESGGGLVQAGGSLRLSCAASGYIFERTAMGWYRQAHGKERELVAAITDDGDDTYYADSVKGRFTISRDNAKNTVYLQMNSLKPEDTAVFYCAKDLYYGDYYYWGQGTQVTVSS | low polyreactivity |
| QVQLVESGGGLVQAGGSLRLSCAASGYIFFGNAMGWYRQAPGKERDLVAAIRWRGTSTYYADSVKGRFTISRDNAKNTVTFLMNSLKPEDSAVYYCAADVVRSNFYGTFLYDYEYWGKGTQVTVSS | low polyreactivity |
| QVQLVESGGGLVQAGGSLRLSCAASGYIFGHYAMGWSRQAPGKERELVAGITWRGGSTYYADSVKGRFTISRDNAKNTVYLQLNSLKPEDTAVYYCNAQYTQRWPYGLYYEMDYWGQGTQVSVSS | low polyreactivity |
| QVQLVESGGGLVQAGGSLRLSCAASGYIFGHYTMGWYRPAPRKERELVAGITSGTRTYYADSVKGRFTISRDNAKNTVYLQMNSRKPDDTAVYYCAKRGPVRTQYTYYYWGQGTQVTVSS | high polyreactivity |
| QVQLVESGGGLVQAGGSLRLSCAASGYIFGIYAMGWYRQAPGKERELVAAISTSGGSKYYADSVKGRFTISRDTAKNTVYLQMNSLKPEDTAVYYCAASRPSPRPRYGYWGQGTQVTVSS | high polyreactivity |
| QVQLVESGGGLVQAGGSLRLSCAASGYIFGIYAMGWYRQAPGKERELVARINWSGGRTYYADSVKGRFTISRDNAKNTVYLQMNSLKTEDTAVYYCAARSSYRKMDYWGQGTQVTVSS | high polyreactivity |
| QVQLVESGGGLVQAGGSLRLSCAASGYIFGNYAMGWYRQAPGKERELVAAISKSGVTTYYADSVKGRFTISRDNAKNTVYLQMNSLKPEDTAVYYCIARSWRPINARYNEYDYWGQGTQVTVSS | low polyreactivity |
| QVQLVESGGGLVQAGGSLRLSCAASGYIFGPNAMGWYRQAPGKERELVAAISSRGDSTFYADSVKGRFTISRDNAKNTDYLQMNSLKPEDTAVYYCAAEEITQFYVGSYLDDYWGQGTQVTVSS | low polyreactivity |

| Sequence | polyreactivity (PSR sort gate) |
| --- | --- |
| QVQLVESGGGLVQAGGSLRLSCAASGYIFGQYAMGWYRQAPGKERELVAAIRRSGGRTYYADSVKGRFTISRDNAKNTVYLQMNSLKPEDTAVYYCNKGPPQTSWRTTLFDYWGQGTQVTVSS | high polyreactivity |
| QVQLVESGGGLVQAGGSLRLSCAASGYIFGSYVMGWYRQAPGKERELVAAISRRGGSTYYADSVKGRFTISRDNAKNTVNLQMNSLKPEYTAVYYFSADYGQYAKYDYWGQGTQVTVSS | high polyreactivity |
| QVQLVESGGGLVQAGGSLRLSCAASGYIFGVYAMGWYRQAPGKERELVAAISYGVGSTYYADSVKGRFTISRDNAKNTVYLQMNSLKPEDNAVYYCAAEDTQVRWSPVRPLEDYWGQGTQVTVSS | low polyreactivity |
| QVQLVESGGGLVQAGGSLRLSCAASGYIFGWYTMGWYRQAPGKERELVAAISGGGRTYYADSVKGRFTISRDNAKNTVYLQMNSLKPEDTAVYYCAARVAQVAYPDGYWGQGTQVTVSS | high polyreactivity |
| QVQLVESGGGLVQAGGSLRLSCAASGYIFGYNAMGWYRQAPGKERELVATINSSDSTNYADSVKGRFTISRDNAKNTVYLQMNSLKPEDTAVYYCNKDHVRRSYPYDYWGQGTQVTVSS | low polyreactivity |
| QVQLVESGGGLVQAGGSLRLSCAASGYIFGYYAMGWYRQAPGKERELVAAIRSGGNTYYADSVKGRFTISRDNAKNTVYLQMNSLKPEDTAVYYCAKRYGRFSDYWGQGTQVTVSS | high polyreactivity |
| QVQLVESGGGLVQAGGSLRLSCAASGYIFGYYVMGWYRQARGKERELVAAISDSDITYYADSVKGRFTISRDNAKNTVSLQMNSLKPEDTAVYYCNADFGYWWDGRRYDYWGQGTQVTVSS | low polyreactivity |
| QVQLVESGGGLVQAGGSLRLSCAASGYIFHYNAMGWYRQAPGKEREFVAAISQGGGSTYYADSVKGRFTISRDNAKNTVYLQMNSLKPEDTAVYYCAADYRSGYREMDYWGQGTQVTVSS | low polyreactivity |
| QVQLVESGGGLVQAGGSLRLSCAASGYIFIGYAMGWYRQAPGKERELVATITSGGSTNYADSVKGRFTISRDNAKNTVYLQLHSLNPEDTAVDYCAAGRGRYFYSWRYLYAIFDYWGQGTQVTVSS | low polyreactivity |
| QVQLVESGGGLVQAGGSLRLSCAASGYIFINNAMGWYRQAPGKERELVAAISFNSGSTYYADSVKGRFTISRDNAKNTVYLQMNSLKPEDTAVYYCAADYEGWGYDYRGDYWGQGTQVTVSS | low polyreactivity |
| QVQLVESGGGLVQAGGSLRLSCAASGYIFIVNAMGWYRQAPGKERELVAAINSSGGNTYYADSVKGRFTISRDNAKNTVYLLMNSLKPEDTAVYYCAADQAKDISVEYDYWGQGTQVTVSS | low polyreactivity |
| QVQLVESGGGLVQAGGSLRLSCAASGYIFKYNTMGWYRQAPGKERELVASITWSGVRTYYADSVKGRFTISRDNAKNTVYLQMNSLKPEDTAVYYCNAAYRRSWDSDDYWGQGTQVTVSS | low polyreactivity |
| QVQLVESGGGLVQAGGSLRLSCAASGYIFKYYAMGWYRQAPGKERELVATINYSGGGTYYADSVKGRFTISRDNAKNTVYLQMNSLKPEDTAVYYCAAEHFFWGYDYWGQGTQVTVSS | high polyreactivity |
| QVQLVESGGGLVQAGGSLRLSCAASGYIFLAYAMGWYRQAPGKERELVADNTYADSVKGRFTISRDNAKNTVYLQMNSLKPEDPAVYYCNADEVYDEYSYDYWGQGTQVTVSS | low polyreactivity |
| QVQLVESGGGLVQAGGSLRLSCAASGYIFLRNAMGWYRQAPGKERELVAAIRRTGGSTYYADSVKGRFTISRDNAKHTVYLQMNSLKPEDTAVYYCAKRSYTGYESWGQGTQVTVSS | low polyreactivity |
| QVQLVESGGGLVQAGGSLRLSCAASGYIFLVYAMGWYRQAPGKERELVAAIDWSDTHTYYADSVKGRFTISRDNAKNTVYLHMNSLKPEDSAVYYCNADDYQYKTWYHLDYWGQGTQVTVSS | low polyreactivity |
| QVQLVESGGGLVQAGGSLRLSCAASGYIFLYNAMGWYRQAPGKERELVAAIRAIGGRTYYADSVKGRFTISRDNAKNTVYLQMNSLKPEDTAVYYCNARGQRRRSTGLRYIYDYWGQGTQVTVSS | high polyreactivity |
| QVQLVESGGGLVQAGGSLRLSCAASGYIFLYYTMGWYRQAPGKERELVAAITIGGGTYYADSVKGRFTISRDNAKNTVYLQMNSLKPEDTAVYYCNADYASYYRYSRPLEMNYWGQGTQVTVSS | low polyreactivity |
| QVQLVESGGGLVQAGGSLRLSCAASGYIFNVYAMGWYRQAPGKESELVAAISTSGGSTYYADSVKGRFSISRDNAKNTVYLQMNSLKPEDTAVYYCAAKSTLSRSHKSDYWGQGTQVTVSS | high polyreactivity |
| QVQLVESGGGLVQAGGSLRLSCAASGYIFNYYAMGWYRQAPGKERELVAAITSGDSTYADSVKGRFTISRDNAKNTVYLQMNSLKPEDTAVYYCAAEISILPFVTPDTIYGYWGQGTQVTVSS | low polyreactivity |
| QVQLVESGGGLVQAGGSLRLSCAASGYIFNYYGMGWYRQAPGKDRELVATISRGASTNYADSVKGRFTISRDNARNTVYFQMNTLKPEDTAVYYCAYWGQRTQVTVSS | low polyreactivity |
